Experimental data taken from patent US20050153395A1, “Unique integrin binding site in connective tissue growth factor (CTGF)” (CHILDREN'S HOSPITAL INC., priority 2003, published 2005).
Entries after “also recorded” stand apart in the source; their conditions may differ.

How the values were obtained:
PSCs = test: PSC chemotaxis (migration) assay in culture insert; assay type: cell-based, rat; conditions: substance in lower chamber
Method: To examine whether CTGF plays a role in PSC migration, a chemotaxis assay was carried out in which the migratory behavior of PSCs in the upper chamber of a culture insert was assessed following addition of CTGF to the lower chamber. […] PSC migration was also promoted by FN, PDGF or TGF-β1.

integrin αvβ3 = integrin αvβ3 (Homo sapiens, UniProt P05106+P06756); test: Solid phase ELISA of integrin αvβ3 binding; conditions: coated at different concentrations
Method: Solid phase binding studies were also performed to investigate the binding of CTGF isoforms and αvβ3. Each CTGF isoform or vitronectin was individually coated onto microtiter wells at different concentrations, and the subsequent binding of αvβ3 was detected by ELISA using an anti-human αvβ3 monoclonal antibody. […] Saturation of binding occurred at 2 μg/ml for each CTGF isoform and 4 μg/ml for vitronectin.
In order to identify the αvβ3 binding site in CTGF4, eighteen synthetic peptides spanning the entire C-terminal region of CTGF4 (residues 246-349 of SEQ ID NO: 1) were synthesized and used as potential blocking agents in the solid phase binding studies as described in Example 3. […] Integrin αvβ3 was detected by successive incubation with anti-human αvβ3 monoclonal antibody diluted in blocking solution (1:1000), and followed by HRP-conjugated goat anti-mouse IgG (1:4000). The color reaction was developed using the horseradish peroxidase ELISA reagents (Chemicon), and the absorbance at 450 nm was measured using Bio Assay Reader (HTS700).
The ability of mutant CTGF4 to bind to integrin αvβ3 was assessed by solid phase ELISA which measured the ability of purified integrin αvβ3 to bind to the CTGF4 mutants.

integrin α5β1 = integrin α5β1 (Homo sapiens, UniProt P05556+P08648); test: Solid phase ELISA of integrin α5β1 binding; conditions: coated at 2 μg/ml; 1 μg/ml integrin
Method: In a second approach, a solid phase binding assay was used in which CTGF1-4 or FN were individually coated onto microtiter wells that were subsequently incubated with purified integrin α5β1. The presence of immobilized integrin α5β1 was detected by ELISA using an anti-integrin α5β1 antibody similar to the methods described in Example 3 above. In addition, CTGF1-4 bound to integrin α5β1 in a dose-dependent manner, with maximal binding at 2 μg/ml CTGF. This level of CTGF1-4 (2 μg/ml) binding was the same as that elicited by 2 μg/ml FN, a well known ligand of integrin α5β1. In a similar experiment, 2 μg/ml of CTGF1-4;CTGF3-4 or CTGF4 were individually precoated onto microtiter wells. Using the solid-phase assay, integrin α5β1 bound to CTGF1-4, CTGF3-4 or CTGF4 See FIG. 5 (Panel B).
To directly analyze whether α5β1 integrin binds to CTGF4, microtiter wells coated with CTGF4 (2 μg/ml) or FN (4 μg/ml) were used in an ELISA assay to detect integrin binding, as described in Example 3. For these assays, 1 μg/ml integrin α5β1, alone or in the presence of 35 μM of P2peptide (CTGF[257-272]) and 35 μM of P5 peptide (CTGF [285-291]), were added to the precoated plates. […] The binding between CTGF4 and integrin α5 β1 was blocked by peptide P5 (CTGF [285-291]) or peptide P2 (CTGF[257-272]). […]

3T3 cells = test: 3T3 cell adhesion to CTGF-coated non-tissue culture plastic; assay type: cell-based; conditions: HPLC-purified E. coli-derived protein
Method: (§1) Adhesion is a well-accepted and reproducible measure of CTGF activity. […] Using 4 liters of CHO conditioned medium approximately 0.5 mg, 1 mg, and 0.1 mg, respectively, of 38 kDa, 16-20 kDa, and 10 kDa CTGF (CTGF1-4, CTGF3-4 and CTGF4, respectively) were produced.
(§2) To confirm the functionality of residues 247-349 of SEQ ID NO: 1 (containing module 4 alone; denoted as CTGF4), this region of CTGF was produced as a maltose binding protein (MBP) fusion protein in E. coli as described in Ball et al., J Endocrinol; 176: R1-R7, 2003. […] HPLC-purified 10 kDa CTGF promoted 3T3 cell adhesion in a dose-dependent manner, with maximal binding at 8 ng/well. […] Also, the binding of all cell types to 10 kDa CTGF was reduced by EDTA treatment, though this effect was relatively modest in 3T3 cells. Thus, E coli-derived CTGF isoforms comprising essentially module 4 are intrinsically functional in the absence of the other constituent modules of CTGF.

[1] = system: pancreatic stellate cells (PSC); test: PSC adhesion assay on coated wells; assay type: cell-based, rat; conditions: coated at 2 μg/ml
Description: Rat PSCs were isolated by a modification of the method described by Phillips et al., Gut; 52:677-82, 2003. Briefly, pancreatic tissue was digested in situ with 0.03% collagenase P (Roche, Indianapolis, Ind.) in HBSS by perfusion through the thoracic aorta. This protocol was approved by the Institutional Animal Care and Use Committee of Children's Research Institute, Columbus, Ohio. The tissue was pooled, minced with scissors, and then digested with 0.05% collagenase P, 0.02% protease XIV (Sigma, St. Louis), and DNase I (Roche, Indianapolis, Ind.) in HBSS. The resulting cell suspension was centrifuged in a 12% Optiprep gradient at 1400 g for 14 minutes. Stellate cells separated into a hazy band just above the interface of a the gradient and the aqueous buffer. This band was harvested, and the cells washed and resuspended in DMEM supplemented with 25 mM Hepes buffer, 10% FBS, and 100 U/ml penicillin in, 100 μg/ml streptomycin. The, cells were maintained at 37° C. in a humidified atmosphere of 5% CO2/95% air.
The ability of activated PSC to adhere to non-tissue culture plastic microtiter wells coated with recombinant CTGF1-4, CTGF3-4 or CTGF4 was investigated. The solid phase binding assay was carried out as described in Example 2. […] To assess the possibility that CTGF-mediated PSC adhesion involved cell surface integrins, the effect of divalent cations on cell adhesion was examined, as described in Example 2. […]
Because CTGF is a heparin-binding protein, this property was further investigated.
To identify the peptides that bind to PSCs, cell adhesion assays were carried out as described in Example 3.
To further investigate the peptide binding, P2 or P5 (10 μM) or vehicle buffer alone (no add) were added to PSC cell suspensions for 30 minutes at room temperature.

[2] = system: vascular endothelial cells, intestinal epithelial, and hepatic stellate cells; test: Adhesion of cell types to 10 kDa CTGF; assay type: cell-based; conditions: vascular endothelial, intestinal epithelial, hepatic stellate cells
Method: as §2

neonatal mice = test: Fibrogenic response after subcutaneous administration to neonatal mice; assay type: in vivo; conditions: administered subcutaneously to neonatal mice
Method: CTGF is also known to induce transdifferentiaion of corneal epithelial cells into α […] muscle actin (αSMA)-expressing myofibroblasts. For example, cells are cultured for 24 hours in the presence and absence of CTGF peptide or CTGF modulator. Subsequently, the treated cells are stained for αSMA. CTGF activity also may be analyzed by measuring for a classic fibrogenic response as described in Leask et al., Mol. Pathol; 54: 180-183, 2001. For example, CTGF peptide or CTGF modulator are administered into the subcutaneous region of the neck of 3 day old mice for 7 consecutive days. Fourteen days after the last injection, the mice are sacrificed and the injected areas are stained for αSMA.
as §1

integrin α5β1, sequence (P08648 42-894 limits assumed): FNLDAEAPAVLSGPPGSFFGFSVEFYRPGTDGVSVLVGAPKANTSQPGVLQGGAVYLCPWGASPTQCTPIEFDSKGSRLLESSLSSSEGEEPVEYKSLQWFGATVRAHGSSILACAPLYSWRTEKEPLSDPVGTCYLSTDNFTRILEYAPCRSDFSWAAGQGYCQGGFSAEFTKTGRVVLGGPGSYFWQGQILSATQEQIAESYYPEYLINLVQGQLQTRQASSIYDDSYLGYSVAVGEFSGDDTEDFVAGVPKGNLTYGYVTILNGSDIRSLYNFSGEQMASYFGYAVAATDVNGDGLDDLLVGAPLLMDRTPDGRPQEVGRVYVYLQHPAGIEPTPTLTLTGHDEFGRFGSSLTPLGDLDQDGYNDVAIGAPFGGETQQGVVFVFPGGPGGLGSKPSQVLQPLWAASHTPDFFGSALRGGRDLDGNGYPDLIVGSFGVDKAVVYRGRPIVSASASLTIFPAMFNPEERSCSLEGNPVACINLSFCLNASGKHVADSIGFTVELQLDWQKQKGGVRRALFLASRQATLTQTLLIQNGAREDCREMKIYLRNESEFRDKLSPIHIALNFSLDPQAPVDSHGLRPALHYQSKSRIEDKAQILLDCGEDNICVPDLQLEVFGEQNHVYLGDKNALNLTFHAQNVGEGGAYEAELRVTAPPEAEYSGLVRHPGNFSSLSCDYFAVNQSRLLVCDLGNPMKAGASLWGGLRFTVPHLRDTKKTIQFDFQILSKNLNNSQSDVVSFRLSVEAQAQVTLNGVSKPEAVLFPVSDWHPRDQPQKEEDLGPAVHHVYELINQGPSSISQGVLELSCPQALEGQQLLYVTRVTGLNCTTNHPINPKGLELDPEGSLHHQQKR
integrin α5β1, sequence (P08648 895-1049 partner limits assumed): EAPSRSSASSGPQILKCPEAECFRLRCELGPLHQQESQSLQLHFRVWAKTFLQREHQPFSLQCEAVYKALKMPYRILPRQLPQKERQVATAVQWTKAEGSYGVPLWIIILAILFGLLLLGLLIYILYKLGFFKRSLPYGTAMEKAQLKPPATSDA
integrin α5β1, sequence (P05556 21-798): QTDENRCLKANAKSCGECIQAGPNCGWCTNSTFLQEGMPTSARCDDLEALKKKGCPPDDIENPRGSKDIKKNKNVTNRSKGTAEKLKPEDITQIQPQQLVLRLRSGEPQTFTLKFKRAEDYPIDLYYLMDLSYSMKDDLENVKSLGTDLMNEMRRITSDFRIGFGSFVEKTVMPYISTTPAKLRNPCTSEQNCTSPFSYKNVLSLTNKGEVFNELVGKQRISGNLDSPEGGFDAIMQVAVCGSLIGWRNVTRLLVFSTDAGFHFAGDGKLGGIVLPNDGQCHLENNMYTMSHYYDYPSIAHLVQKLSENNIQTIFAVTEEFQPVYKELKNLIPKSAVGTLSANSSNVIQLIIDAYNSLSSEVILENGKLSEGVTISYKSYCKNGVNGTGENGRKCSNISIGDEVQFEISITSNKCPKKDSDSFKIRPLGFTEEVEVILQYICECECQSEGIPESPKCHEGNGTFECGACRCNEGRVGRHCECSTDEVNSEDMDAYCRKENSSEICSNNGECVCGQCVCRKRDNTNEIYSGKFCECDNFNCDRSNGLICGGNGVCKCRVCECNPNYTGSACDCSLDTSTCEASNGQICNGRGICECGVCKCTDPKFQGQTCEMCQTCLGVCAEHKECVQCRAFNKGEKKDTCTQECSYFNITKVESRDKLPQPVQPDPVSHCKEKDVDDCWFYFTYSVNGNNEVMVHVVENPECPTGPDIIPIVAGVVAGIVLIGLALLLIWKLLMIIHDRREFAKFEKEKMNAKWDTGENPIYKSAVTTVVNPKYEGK
integrin αvβ3, sequence (P06756 31-889 limits assumed): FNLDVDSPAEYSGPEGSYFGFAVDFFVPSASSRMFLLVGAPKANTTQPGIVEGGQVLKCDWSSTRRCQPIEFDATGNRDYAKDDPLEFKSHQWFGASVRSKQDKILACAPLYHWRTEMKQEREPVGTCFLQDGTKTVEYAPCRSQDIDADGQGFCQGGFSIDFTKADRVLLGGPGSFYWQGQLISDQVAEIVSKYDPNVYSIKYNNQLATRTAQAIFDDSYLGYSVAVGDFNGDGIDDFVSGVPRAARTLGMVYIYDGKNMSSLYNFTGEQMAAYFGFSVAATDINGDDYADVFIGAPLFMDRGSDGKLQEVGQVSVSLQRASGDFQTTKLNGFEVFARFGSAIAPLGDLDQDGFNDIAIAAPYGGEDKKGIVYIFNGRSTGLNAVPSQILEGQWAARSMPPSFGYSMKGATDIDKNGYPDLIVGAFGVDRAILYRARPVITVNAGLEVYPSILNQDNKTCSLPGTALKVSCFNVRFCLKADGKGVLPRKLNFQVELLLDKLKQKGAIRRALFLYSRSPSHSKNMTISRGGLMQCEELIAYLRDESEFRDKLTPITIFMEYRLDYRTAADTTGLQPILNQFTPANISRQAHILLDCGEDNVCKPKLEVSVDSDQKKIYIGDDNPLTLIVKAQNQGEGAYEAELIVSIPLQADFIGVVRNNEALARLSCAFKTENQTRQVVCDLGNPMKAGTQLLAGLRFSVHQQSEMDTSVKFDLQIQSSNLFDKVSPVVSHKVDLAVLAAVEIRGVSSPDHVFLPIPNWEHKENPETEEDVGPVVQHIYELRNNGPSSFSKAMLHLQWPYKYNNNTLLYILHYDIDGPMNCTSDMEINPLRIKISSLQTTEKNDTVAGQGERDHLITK
integrin αvβ3, sequence (P06756 891-1048 partner limits assumed): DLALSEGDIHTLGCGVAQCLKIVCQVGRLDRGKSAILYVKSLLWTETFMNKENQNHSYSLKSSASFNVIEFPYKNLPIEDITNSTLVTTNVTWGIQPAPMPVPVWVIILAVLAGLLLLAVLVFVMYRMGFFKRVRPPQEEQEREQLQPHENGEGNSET
integrin αvβ3, sequence (P05106 27-788): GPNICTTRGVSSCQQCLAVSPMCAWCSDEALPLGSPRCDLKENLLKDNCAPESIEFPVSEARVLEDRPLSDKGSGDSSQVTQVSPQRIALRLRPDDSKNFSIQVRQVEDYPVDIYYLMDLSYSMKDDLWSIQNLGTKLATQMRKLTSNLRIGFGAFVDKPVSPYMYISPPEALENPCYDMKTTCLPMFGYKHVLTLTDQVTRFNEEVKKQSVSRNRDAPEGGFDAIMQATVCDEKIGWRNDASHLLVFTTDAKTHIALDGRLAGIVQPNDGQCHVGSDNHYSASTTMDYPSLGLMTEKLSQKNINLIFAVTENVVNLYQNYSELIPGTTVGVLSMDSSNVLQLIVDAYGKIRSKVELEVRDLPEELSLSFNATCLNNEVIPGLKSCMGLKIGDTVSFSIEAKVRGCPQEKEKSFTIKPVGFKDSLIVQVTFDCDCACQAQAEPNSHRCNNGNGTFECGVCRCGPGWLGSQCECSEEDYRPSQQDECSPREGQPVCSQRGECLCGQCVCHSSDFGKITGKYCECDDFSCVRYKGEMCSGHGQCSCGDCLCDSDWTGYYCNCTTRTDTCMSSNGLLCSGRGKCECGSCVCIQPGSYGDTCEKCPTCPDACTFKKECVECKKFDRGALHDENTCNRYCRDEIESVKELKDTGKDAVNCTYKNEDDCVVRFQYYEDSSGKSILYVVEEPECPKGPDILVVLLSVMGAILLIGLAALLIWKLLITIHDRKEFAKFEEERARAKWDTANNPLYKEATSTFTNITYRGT

binding to αvβ3 (integrin αvβ3): strongest affinity
binding to integrin α5β1 (integrin α5β1): bound; also recorded: bound strongly
B1: CTGF4: C-terminal CTGF fragment comprising essentially module 4 alone, residues 247-349 (protein)
chain: EENIKKGKKCIRTPKISKPIKFELSGCTSMKTYRAKFCGVCTDGRCCTPHRTTTLPVEFKCPDGEVMKKNMMFIKTCACHYNCPGDNDIFESLYYRKMYGDMA
PSC migration (PSCs): induced PSC migration
3T3 cell adhesion, maximal binding at (3T3 cells): 8 ng/well
PSC adhesion supported by the coated substance [1]: significantly promoted
adhesion of several additional cell types [2]: promoted the dose-dependent adhesion
fibrogenic response (neonatal mice): most robust response
